In PMC9600255:

Molecular target: His6-tagged cytokeratin-19 (Novus Biologicals) (UniProt P08727)
Assay: MST; His6-cytokeratin-19 labelled with RED-tris-NTA 2nd Generation dye, kept at 25 nM; BspC full-length or V-domain titrated from 5 uM to 0.153 nM; premium capillaries, Monolith NT.115 Pico, 20% excitation power

Chain of UniProt P08727 (P08727 whole entry): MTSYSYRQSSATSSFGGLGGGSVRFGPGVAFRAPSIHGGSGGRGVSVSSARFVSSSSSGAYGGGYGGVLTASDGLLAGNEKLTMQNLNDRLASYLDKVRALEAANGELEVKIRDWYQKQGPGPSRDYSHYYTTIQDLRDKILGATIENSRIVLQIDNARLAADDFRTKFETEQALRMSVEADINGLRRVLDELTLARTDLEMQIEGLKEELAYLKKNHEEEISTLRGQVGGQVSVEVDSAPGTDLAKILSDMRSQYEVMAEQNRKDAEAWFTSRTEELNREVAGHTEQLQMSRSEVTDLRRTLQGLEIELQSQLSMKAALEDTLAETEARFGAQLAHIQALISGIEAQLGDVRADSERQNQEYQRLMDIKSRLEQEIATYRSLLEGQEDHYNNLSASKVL

In the case of “BspC V-domain protein (recombinant BspC consisting of only the variable domain) (domain or fragment)”, the Kd is reported as 362 nM.
“full-length BspC protein (Group B streptococcal surface protein C) (natural protein)” showed a Kd of 32.9 nM.
